# Data: US20190010232A1 (Eli Lilly, published 2019)
# B1: parent PD-L1 antibody (as IgG1-EN homodimer) (antibody, V domains shown)
# VH: QVQLVQSGAEVKKPGSSVKVSCKASGGTFSSYAISWVRQAPGQGLEWMGGIIPIFGTANYAQKFQGRVTITADKSTSTAYMELSSLRSEDTAVYYCARSPDYSPYYYYGMDVWGQGTTVTVSS
# VL: QSVLTQPPSASGTPGQRVTISCSGSSSNIGSNTVNWYQQLPGTAPKLLIYGNSNRPSGVPDRFSGSKSGTSASLAISGLQSEDEADYYCQSYDSSLSGSVFGGGIKLTVL
# notes: IgG1-EN homodimer; parent of the anti-PD-L1 arm of the bispecific antibodies; also called parental PD-L1 Ab; parental anti-PD-L1 antibody
# Experiments:
# PD-L1 expressed on cells = PD-L1 expressed on cells (UniProt Q9NZQ7 19-290, limits assumed); test: cell-based or functional assay
# Sequence of PD-L1 expressed on cells (Q9NZQ7 19-290 limits assumed): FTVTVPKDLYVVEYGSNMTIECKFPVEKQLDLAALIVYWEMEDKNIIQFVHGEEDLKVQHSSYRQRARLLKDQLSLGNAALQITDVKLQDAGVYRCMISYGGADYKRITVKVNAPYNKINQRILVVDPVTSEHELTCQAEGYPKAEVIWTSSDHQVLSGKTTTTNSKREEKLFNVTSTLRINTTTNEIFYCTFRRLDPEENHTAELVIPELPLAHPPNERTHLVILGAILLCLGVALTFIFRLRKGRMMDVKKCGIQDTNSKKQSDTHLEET
# [1] = molecular target: T1, human PD-L1-Fc (R&D Systems, cat#156-B7) (human, UniProt Q9NZQ7 19-239); test: ELISA, plate coated with human PD-L1-Fc, detection with anti-human IgG F(ab')2-HRP
# T1 construct: Bought reagent; both are treated here as the same molecule; also called PD-L1 ligand; not shown: Fc part of the bought fusion protein
# T1 sequence (Q9NZQ7 19-239 limits assumed): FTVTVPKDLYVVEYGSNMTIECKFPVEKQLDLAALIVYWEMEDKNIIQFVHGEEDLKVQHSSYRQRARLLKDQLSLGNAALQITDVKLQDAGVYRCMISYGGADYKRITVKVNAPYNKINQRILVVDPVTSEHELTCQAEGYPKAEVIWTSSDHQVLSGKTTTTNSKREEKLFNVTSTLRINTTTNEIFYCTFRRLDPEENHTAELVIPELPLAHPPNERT
binder,measurement,setting,value
B1,"EC50, PD-1/NFAT Reporter Jurkat T cell assay with PD-L1 positive T cell activator CHO cells",PD-L1 expressed on cells,1.92 nM
same,EC50,[1],0.47 nM
